Target: Human uPA (Chemicon) (human) (UniProt P00749)
Test: cell-based or functional assay

Sequence of Glutathione S-transferase (GST)-tagged maspin (GST-maspin), bacterial recombinant (P08515 whole entry): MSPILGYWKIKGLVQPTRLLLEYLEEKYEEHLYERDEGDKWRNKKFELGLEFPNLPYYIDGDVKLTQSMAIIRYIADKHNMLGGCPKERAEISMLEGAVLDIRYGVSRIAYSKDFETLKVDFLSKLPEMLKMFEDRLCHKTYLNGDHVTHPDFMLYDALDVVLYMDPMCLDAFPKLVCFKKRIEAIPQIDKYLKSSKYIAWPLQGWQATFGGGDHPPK

maspin-mediated adhesion of uPA-stripped MCF0A cells resupplied with exogenous uPA (800 nM) (% of GST control): 154
Substance: Glutathione S-transferase (GST)-tagged maspin (GST-maspin), bacterial recombinant (from UniProt P08515 1-218)
